Test results: the supplement of paper PMC9170038

Tested on: MS2 coat protein
Experiment: apparent KD of MS2 coat protein; designed switch direction (-1 OFF switch, 1 ON switch): -1; higher = weaker reporter binding
Method in brief: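 Designed RNA switches sharing common flanks were transcribed on Illumina chips by stalled E. coli RNA polymerase. They were titrated with SNAP-549-labelled MS2 coat protein, from 0.7 or 1.5 nM doubling to 3 µM, in Tris-HCl pH 7.5 buffer with KCl, MgCl2, BSA, DTT, tRNA and Tween-20. Titrations ran without input, with 200 uM small-molecule ligand, or with an oligonucleotide input. The apparent KD of each design is the median over its clusters, after curve-fitting of normalised cluster fluorescence.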

[1] = input ligand: microRNA oligo, concentration not stated
[2] = Eterna round: R95, input ligand: microRNA oligo, concentration not stated

Sequence | apparent KD of MS2 coat protein (input ligand: FMN 200 uM) [nM] | apparent KD of MS2 coat protein [1] [nM] | apparent KD of MS2 coat protein (input ligand: none) [nM] | apparent KD of MS2 coat protein (Eterna round: R95, input ligand: FMN 200 uM) [nM] | apparent KD of MS2 coat protein [2] [nM] | apparent KD of MS2 coat protein (Eterna round: R95, input ligand: none) [nM]
UGUUGUCGCGCAGGAUAUGAGGAUCACCCAUGUAGAGGAUAUGAAAAGAAGGCUCUGAGGAUUACCCAGAAGGGCGGGACAACU [pwkr exNG2 2xF5 2xFMN.25] (Eterna round: R96, puzzle: Exclusion NG 2) | 800 | 270 | 400 | – | – | –
UGUUGUCGCGCAGGAUAUGGCCAACAGGCCCUAGGAUAUCCGAAAGGAGAAGGAGCGCCAACAGGCGAGAAGGGCGGGACAACU [pwkr exNG2 2xF7 2xFMN.16] (Eterna round: R96, puzzle: Exclusion NG 2) | 19.5 | 4.03 | 29.7 | – | – | –
UGUUGUCGCGCAGGAUAUGUAUGAGGAUCACCCAUUAAUAAAUUUUAACCACGAGGAUCACCCGUGUAGAAGGGCGGGACAACA [pwkr exNG2 2xF5 1xFMN.15] (Eterna round: R96, puzzle: Exclusion NG 2) | 30.8 | 18.3 | 29.5 | – | – | –
UGUUGUUACGCAGGAUAUGAGGAUCACCCAUAUUAGGAUAUCGAAAGAGAAUUUCUGAGGAUCACCCAGAAGGGCGGGUUAACA [pwkr exNG2 2xF5 2xFMN.36] (Eterna round: R96, puzzle: Exclusion NG 2) | 118 | 38.5 | 47.3 | – | – | –
UGUUGUUACGCAGGAUAUGUAUGAGGAUCACCCAUUAAUAAAUUUUAACCACGAGGAUCACCCGUGUAGAAGGGCGGGUUAACA [pwkr exNG2 2xF5 1xFMN.13] (Eterna round: R96, puzzle: Exclusion NG 2) | 96.3 | 65 | 105 | – | – | –
UGUUGUUACGCAGGAUAUUGCCAACAGGCAGUAGGAUAUCCGAAAGGAGAAGGACCGCCAACAGGCGAGAAGGGCGGGUUAACA [pwkr exNG2 2xF7 2xFMN.10] (Eterna round: R96, puzzle: Exclusion NG 2) | 370 | 227 | 16.3 | – | – | –
UGUUGUUACGUAGGAUAUGAGGAUCACCCAUAGAAGGAUAUCGAAAGAGAAGGUCUGAGGAUUACCCAGAAGGACGGGUUAACA [pwkr exNG2 2xF5 2xFMN.4] (Eterna round: R96, puzzle: Exclusion NG 2) | 1340 | 131 | 139 | – | – | –
UGUUUACAUGAGGAUCACCCAUGUCAGGAUAUGCUCGAUAUAUGGAAACAUAUAUCGAGCAGAAGGGACUAGCG [Jieuxxlusion 4 - Jieux - Exclusion 1] (Eterna round: R97, puzzle: Exclusion 1) | 85 | – | 39.3 | – | – | –
UUAAAACAUGUAGGAUAUGCGUAGAAAAGCUAUGCAGAAGGACAUGAGGAUCACCCAUGUUCAACCAUCAACGUACAGAUGGAA (Eterna round: R96, puzzle: Exclusion NG 1) | 31.7 | 12.1 | 14.1 | – | – | –
UUAAAUCAUGUAGGAUAUGCGUGGCGAAGCUAUGCAGAAGGACAUGAGGAUCACCCAUGUCUUUCCGUCUGCGUACAGAUGGAA [JL Eng1 1.08 mod 2] (Eterna round: R96, puzzle: Exclusion NG 1) | 259 | 19.8 | 24.8 | – | – | –
UUAAAUCAUGUAGGAUAUGCGUGGCGAAGCUAUGCAGAAGGACAUGAGGAUCACCCAUGUGCUUGCGUCCGCGUACGGAUGCUA [JL ENG1 1.22] (Eterna round: R96, puzzle: Exclusion NG 1) | 195 | 94 | 104 | – | – | –
UUAAAUCAUGUAGGAUAUGCGUGGCGAAGCUAUGCAGAAGGACAUGAGGAUCACCCAUGUGCUUGCGUCUGAGUACAGAUGCUA [Mat - Exclusion NG 1 - Mod of JL - D4] (Eterna round: R96, puzzle: Exclusion NG 1) | 86.4 | 74 | 117 | – | – | –
UUAAAUCAUGUAGGAUAUGCUUUGCAAAGCGAGGCAGAAGGACAUGAGGAUCACCCAUGUGCUAGCGUCCGAGAACGGAUGCAA [Mat - Exclusion NG 1 - Mod of JL - D64] (Eterna round: R96, puzzle: Exclusion NG 1) | 503 | 41.6 | 46.6 | – | – | –
UUAAAUCAUGUAGGAUAUGCUUUGCGAAGCGAGGCAGAAGGACAUGAGGAUCACCCAUGUGCUAGCGUCCGAGAACGGAUGCAA [Mat - Exclusion NG 1 - Mod of JL - D63] (Eterna round: R96, puzzle: Exclusion NG 1) | 149 | 51.8 | 79.6 | – | – | –
UUAACAUGCUGGUGAUCAUACAUGAGGAUCACCCAUGUAACAAGCUUUUUGUUCGUCUUAUAAGAUCACCAGCAUGU [Stov1/9-B1] (Eterna round: R97, puzzle: Sensor, turn-off variant 1) | 18.7 | – | 17.2 | – | – | –
UUAAGCUUUGAGAUCCUUAACAUGAGGAUCACCCAUGUUCGUCUUAUGAUGGUCUGAUCCCUGAGGAUCGGACCGUU [Mat - Sensor v3 - turn-off var 1 - JL Mod - D3] (puzzle: Sensor v3, turn-off variant 1) | – | – | – | 261 | 22.5 | 303

Sequence | apparent KD of MS2 coat protein (input ligand: FMN 200 uM) [nM] | apparent KD of MS2 coat protein [1] [nM] | apparent KD of MS2 coat protein (input ligand: none) [nM] | apparent KD of MS2 coat protein (Eterna round: R95, input ligand: FMN 200 uM) [nM] | apparent KD of MS2 coat protein [2] [nM] | apparent KD of MS2 coat protein (Eterna round: R95, input ligand: none) [nM]
UUAAGGAUAGAGGAUAUAUUAAAGAAGGUGGCGAUAGAAGGCUAGACAUGAGGAUCACCCAUGUAAAUUGGGAU [JR_Ex6_Sub068] (Eterna round: R97, puzzle: Exclusion 6) | 378 | – | 309 | – | – | –
UUAAUAAGUGUGAGGAUAUGCUGGUCCUUGGAUCAGCAGAAGGCACAUGAGGAUCACCCAUGUACAAUAUAUUA [Mat - Exclusion 4 - JL Mod - D31] (puzzle: Brourd's mod of Exclusion 4) | – | – | – | – | 33.9 | –
UUAAUACAUGUAGGAUAUGCGUGGCGAAGCUAUGCAGAAGGACAUGAGGAUCACCCAUGUUCUUGCGUCCGCGUACGGAUGCAA [JL Eng1 1.21 mod 4] (Eterna round: R96, puzzle: Exclusion NG 1) | 29.4 | 10.2 | 15.2 | – | – | –
UUAAUGUGAGGAUAUCAGGUGUGCUAGCGUACUGGUACAUCUGAGAAGGCACAUGAGGAUCACCCAUGUUCCAG [JL-ex4-3.29 Brourd mod] (puzzle: Exclusion 4) | – | – | – | – | 30.5 | –
UUAAUUAAUUAACGCAGCAAGAUCACAUGAGGAUCACCCAUGUAGGAUAUCAGCUCGUUUAGAGCUGAGAAGGACAUAGCUGCG [ExNG3/1-A2] (Eterna round: R96, puzzle: Exclusion NG 3) | 87.6 | 11.1 | 18 | – | – | –
UUAAUUAAUUAUAUAAGAUCACAUGAGGAUCACCCAUGUAUAUAGGAUAUCAGCUCGUGUAGAGCUGAGAAGGAUAUACAAUAU [ExNG3/3-B3] (Eterna round: R96, puzzle: Exclusion NG 3) | 241 | 210 | 175 | – | – | –
UUAAUUAAUUGACUGCAAGAUCAACAUGAGGAUCACCCAUGUGAGGAUAUCAGCUCGUGUAGAGCUGAGAAGGCACAAGCAGUC [ExNG3/16-A3] (Eterna round: R96, puzzle: Exclusion NG 3) | 73.6 | 13.4 | 21.8 | – | – | –
UUAAUUAAUUGCGCAAGAUCACAUGAGGAUCACCCAUGUAUAUAGGAUAUCAGCUCGUGUAGAGCUGAGAAGGAUAUACAGCGC [ExNG3/3-A3] (Eterna round: R96, puzzle: Exclusion NG 3) | 886 | 419 | 495 | – | – | –
UUAAUUAGCUCGCUAGAUCCUCACAUGAGGAUCACCCAUGUGCAGGAUAUCAGCUCGAUUAGAGCUGAGAAGGGCACUGCGAGC [ExNG3/10-A1] (Eterna round: R96, puzzle: Exclusion NG 3) | 160 | 89.5 | 104 | – | – | –
UUAAUUCUGAUUCUUGAAAUACAUGAGGAUCACCCAUGUUCACAGGAUAUUGAUUAUGUUAGUAACAAGAAGGGUGUAACAUAU [JR_ExcNG3_Sub037] (Eterna round: R96, puzzle: Exclusion NG 3) | – | 26.4 | – | – | – | –
UUAAUUUAAGGGAUAGAUCAUUACAUGAGGAUCACCCAUGUUGAGGAUAUCAGCUCGUGUAGAGCUGAGAAGGCAACAAUAGGG [ExNG3/14-A3] (Eterna round: R96, puzzle: Exclusion NG 3) | 249 | 377 | 92.3 | – | – | –
UUACGGAUAGAGGAUAUAUUAAGGAAGGUUACGAUAGAAGGCUAGACAUGAGGAUCACCCAUGUAUAUUGGGAU [JR_Ex6_Sub072] (Eterna round: R97, puzzle: Exclusion 6) | 172 | – | 144 | – | – | –
UUACGUUUAGAGGAUAUAUUAAGGAAGGUAACGAUAGAAGGCUAGACAUGAGGAUCACCCAUGUAUAUAGGGAU [JR_Ex6_Sub071] (Eterna round: R97, puzzle: Exclusion 6) | 141 | – | 54 | – | – | –
UUAGAGUCAGGAUAUGCAGCUCCCUGUAGGGCCGAACAGCAGUAGAAGGGACAUGAGGAUCACCCAUGUGAUAG [Eternabot (L2) Solution 52] (Eterna round: R97, puzzle: Exclusion 4) | 86.1 | – | 81.5 | – | – | –
UUAGAUAGGUCAGGAUAUCGAUUAUUGUAUAGUAUGAUUUACAUGAGGAUCACCCAUGUUAAAUACGAGAAGGGACGUUAGAUU [JR_ExcNG2_Sub022] (Eterna round: R96, puzzle: Exclusion NG 2) | – | 16.9 | – | – | – | –
